Experimental data as given in patent US20250043302A1, “MUTATED HYDROXYPHENYLPYRUVATE DIOXYGENASE POLYPEPTIDE, AND CODING GENE AND USE THEREOF” (BEIJING DABEINONG BIOTECHNOLOGY CO., LTD., priority 2021, published 2025).

Tests used:
[1] = tested on: Arabidopsis thaliana T1 plants; assay: Isoxaflutole tolerance of transgenic Arabidopsis thaliana T1 plants (spray, bleached leaf area grade, damage score); format: in vivo; settings: for Grade 0 (classification and statistics of the grade of pesticide damage; number of plants) / Grade 1 (classification and statistics of the grade of pesticide damage; number of plants) / Grade 2 (classification and statistics of the grade of pesticide damage; number of plants) / Grade 3 (classification and statistics of the grade of pesticide damage; number of plants): 16 plants; for Classification and statistics of the grade of pesticide damage: Grade 0 / Classification and statistics of the grade of pesticide damage: Grade 1 / Classification and statistics of the grade of pesticide damage: Grade 2 / Classification and statistics of the grade of pesticide damage: Grade 3: number of plants;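 for Scores: Weighted damage index from 0 to 100 where higher means more damage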
Summary of the method: (§1)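 Damage was assessed by bleaching grade (0 none; 1 <50%; 2 >50%; 3 100% of leaf area) one week after spraying. Sprays on 18-day-old T1 and wild-type plants used field-rate multiples: topramezone 25–200, isoxaflutole 35–280, mesotrione 52.5–420 g ai/ha.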

[2] = tested on: Arabidopsis thaliana T1 plants; assay: Topramezone tolerance of transgenic Arabidopsis thaliana T1 plants (spray, bleached leaf area grade, damage score); format: in vivo; settings: for Classification and statistics of the grade of pesticide damage Grade 0: number of plants at grade 0; for Classification and statistics of the grade of pesticide damage Grade 1: number of plants at grade 1; for Classification and statistics of the grade of pesticide damage Grade 2: number of plants at grade 2; for Classification and statistics of the grade of pesticide damage Grade 3: number of plants at grade 3; for Classification and statistics of the grade of pesticide damage: Grade 0 / Classification and statistics of the grade of pesticide damage: Grade 1 / Classification and statistics of the grade of pesticide damage: Grade 2 / Classification and statistics of the grade of pesticide damage: Grade 3: number of plants; for Grade 0 (classification and statistics of the grade of pesticide damage; number of plants) / Grade 1 (classification and statistics of the grade of pesticide damage; number of plants) / Grade 2 (classification and statistics of the grade of pesticide damage; number of plants) / Grade 3 (classification and statistics of the grade of pesticide damage; number of plants): 16 plants
Summary of the method: as §1

[3] = isoxaflutole 140 g ai/ha (2x field concentration), Arabidopsis thaliana T1 plants
[4] = isoxaflutole 140 g ai/ha (2×), 7 DAT, Table 2
[5] = isoxaflutole 140 g ai/ha, number of plants in grade
[6] = isoxaflutole 280 g ai/ha (4x field concentration), Arabidopsis thaliana T1 plants
[7] = isoxaflutole 280 g ai/ha (4×), 7 DAT, Table 2
[8] = isoxaflutole 280 g ai/ha, number of plants in grade
[9] = Table 10, topramezone 100 g ai/ha (4×)
[10] = Table 10, topramezone 200 g ai/ha (8×)
[11] = topramezone 100 g ai/ha (4×), 7 DAT, Table 1
[12] = topramezone 200 g ai/ha (8×), 7 DAT, Table 1
[13] = topramezone 100 g ai/ha (4x field concentration), Arabidopsis thaliana T1 plants
[14] = topramezone 200 g ai/ha (8x field concentration), Arabidopsis thaliana T1 plants

B1: AsHPPD-02: nucleotide sequence encoding Avena sativa wild-type HPPD; vector DBN11727 (nucleic acid)
DNA: ATGCCACCTACTCCAGCTACAGCTACTGGTGCTGCTGCTGCTGCCGTTACTCCTGAGCACGCTGCCAGGTCATTCCCCAGGGTGGTTCGCGTGAACCCCAGATCTGATAGGTTCCCAGTTCTGAGCTTCCACCATGTTGAGCTGTGGTGCGCTGATGCTGCTTCTGCTGCTGGCAGGTTCTCTTTCGCTCTTGGTGCTCCACTCGCTGCTAGATCTGATCTGTCTACAGGAAATAGCGCTCATGCCTCACTCCTGCTTCGCTCAGGTGCTTTGGCCTTCCTCTTCACCGCTCCATATGCTCCCCCACCTCAGGAGGCTGCTACTGCTGCTGCTACAGCCTCCATTCCAAGCTTCTCAGCTGATGCCGCTAGAACCTTCGCTGCTGCTCATGGACTTGCCGTGAGGTCTGTTGGTGTTCGCGTGGCTGATGCTGCTGAGGCTTTCAGAGTTTCCGTTGCCGGCGGAGCTAGGCCAGCTTTCGCTCCTGCTGATTTGGGACATGGTTTCGGCCTGGCTGAGGTTGAGCTTTACGGTGACGTGGTTCTCCGCTTCGTGTCTTACCCAGATGAGACTGACCTGCCTTTCCTTCCCGGCTTCGAGAGAGTTTCCTCTCCTGGTGCCGTGGATTACGGCCTGACAAGGTTCGACCACGTGGTTGGAAACGTTCCCGAGATGGCTCCAGTGATCGATTACATGAAGGGCTTCCTTGGATTCCATGAGTTCGCCGAGTTCACTGCTGAGGACGTGGGAACCACTGAGTCCGGTTTGAACTCTGTGGTTCTCGCCAACAATTCTGAGGCTGTTTTGCTCCCTCTGAATGAGCCTGTGCATGGAACCAAGAGGAGAAGCCAGATTCAAACTTACCTGGAGTACCACGGTGGCCCTGGAGTTCAGCATATCGCCCTTGCTTCTAATGATGTGTTGCGCACACTCAGAGAGATGCGCGCCAGAACCCCCATGGGAGGTTTCGAGTTCATGGCCCCACCACAGGCTAAGTACTACGAGGGCGTTAGAAGGATTGCTGGAGACGTGTTGAGCGAGGAGCAGATCAAGGAGTGCCAAGAGCTGGGTGTTCTTGTGGATAGGGATGACCAGGGCGTTCTGCTTCAAATTTTCACTAAGCCAGTGGGCGACCGCCCTACATTCTTCCTTGAGATGATTCAAAGAATCGGCTGCATGGAGAAGGATGAGGTTGGACAGGAGTACCAAAAGGGCGGATGCGGTGGCTTCGGAAAGGGTAACTTCAGCGAGTTGTTCAAGTCAATCGAGGACTACGAGAAGAGCCTCGAGGTGAAGCAGTCAGTGGTTGCCCAAAAGTCCTGA
modifications: AsHPPD-02 Nucleotide Sequence
notes: vector DBN11727
Resistance evaluation ([1]; Table 11, isoxaflutole 140 g ai/ha (2×)): Non-resistant | Classification and statistics of the grade of pesticide damage Grade 0 ([1]; Table 11, isoxaflutole 140 g ai/ha (2×), number of plants at grade 0): 0 | Classification and statistics of the grade of pesticide damage Grade 1 ([1]; Table 11, isoxaflutole 140 g ai/ha (2×), number of plants at grade 1): 1 | Classification and statistics of the grade of pesticide damage Grade 2 ([1]; Table 11, isoxaflutole 140 g ai/ha (2×), number of plants at grade 2): 4 | Classification and statistics of the grade of pesticide damage Grade 3 ([1]; Table 11, isoxaflutole 140 g ai/ha (2×), number of plants at grade 3): 11 | Scores ([1]; Table 11, isoxaflutole 140 g ai/ha (2×), pesticide damage score): 88 | Resistance evaluation ([1]; Table 11, isoxaflutole 280 g ai/ha (4×)): Non-resistant | Classification and statistics of the grade of pesticide damage Grade 0 ([1]; Table 11, isoxaflutole 280 g ai/ha (4×), number of plants at grade 0): 0 | Classification and statistics of the grade of pesticide damage Grade 1 ([1]; Table 11, isoxaflutole 280 g ai/ha (4×), number of plants at grade 1): 0 | Classification and statistics of the grade of pesticide damage Grade 2 ([1]; Table 11, isoxaflutole 280 g ai/ha (4×), number of plants at grade 2): 0 | Classification and statistics of the grade of pesticide damage Grade 3 ([1]; Table 11, isoxaflutole 280 g ai/ha (4×), number of plants at grade 3): 16 | Scores ([1]; Table 11, isoxaflutole 280 g ai/ha (4×), pesticide damage score): 100 | tolerance to isoxaflutole (in words) ([1]; in vivo): no tolerance | Resistance evaluation ([1]; isoxaflutole 140 g ai/ha): Non-resistant | Scores ([1]; isoxaflutole 140 g ai/ha): 88 | Resistance evaluation [1, 3]: Non-resistant | Scores [1, 3]: 88 | Grade 0 (classification and statistics of the grade of pesticide damage; number of plants) [1, 3]: 0 | Grade 1 (classification and statistics of the grade of pesticide damage; number of plants) [1, 3]: 1 | Grade 2 (classification and statistics of the grade of pesticide damage; number of plants) [1, 3]: 4 | Grade 3 (classification and statistics of the grade of pesticide damage; number of plants) [1, 3]: 11 | Resistance evaluation [1, 4]: non-resistant (non-resistant plants (scores 68-100)) | Classification and statistics of the grade of pesticide damage Grade 0 [1, 5]: 0 | Classification and statistics of the grade of pesticide damage Grade 1 [1, 5]: 1 | Classification and statistics of the grade of pesticide damage Grade 2 [1, 5]: 4 | Classification and statistics of the grade of pesticide damage Grade 3 [1, 5]: 11 | Resistance evaluation ([1]; isoxaflutole 280 g ai/ha): Non-resistant | Scores ([1]; isoxaflutole 280 g ai/ha): 100 | Resistance evaluation [1, 6]: Non-resistant | Scores [1, 6]: 100 | Grade 0 (classification and statistics of the grade of pesticide damage; number of plants) [1, 6]: 0 | Grade 1 (classification and statistics of the grade of pesticide damage; number of plants) [1, 6]: 0 | Grade 2 (classification and statistics of the grade of pesticide damage; number of plants) [1, 6]: 0 | Grade 3 (classification and statistics of the grade of pesticide damage; number of plants) [1, 6]: 16 | Resistance evaluation [1, 7]: non-resistant (non-resistant plants (scores 68-100)) | Classification and statistics of the grade of pesticide damage Grade 0 [1, 8]: 0 | Classification and statistics of the grade of pesticide damage Grade 1 [1, 8]: 0 | Classification and statistics of the grade of pesticide damage Grade 2 [1, 8]: 0 | Classification and statistics of the grade of pesticide damage Grade 3 [1, 8]: 16 | Classification and statistics of the grade of pesticide damage: Grade 0 [1, 4]: 0 | Classification and statistics of the grade of pesticide damage: Grade 1 [1, 4]: 1 | Classification and statistics of the grade of pesticide damage: Grade 2 [1, 4]: 4 | Classification and statistics of the grade of pesticide damage: Grade 3 [1, 4]: 11 | Classification and statistics of the grade of pesticide damage: Grade 0 [1, 7]: 0 | Classification and statistics of the grade of pesticide damage: Grade 1 [1, 7]: 0 | Classification and statistics of the grade of pesticide damage: Grade 2 [1, 7]: 0 | Classification and statistics of the grade of pesticide damage: Grade 3 [1, 7]: 16 | Scores ([1]; pesticide damage score 0-100, isoxaflutole 140 g ai/ha (2×), 7 DAT, Table 2): 88 | Scores ([1]; pesticide damage score 0-100, isoxaflutole 280 g ai/ha (4×), 7 DAT, Table 2): 100 | Resistance evaluation [2, 9]: Non-resistant | Classification and statistics of the grade of pesticide damage Grade 0 [2, 9]: 0 | Classification and statistics of the grade of pesticide damage Grade 1 [2, 9]: 0 | Classification and statistics of the grade of pesticide damage Grade 2 [2, 9]: 4 | Classification and statistics of the grade of pesticide damage Grade 3 [2, 9]: 12 | Scores ([2]; Table 10, topramezone 100 g ai/ha (4×), pesticide damage score): 92 | Resistance evaluation [2, 10]: Non-resistant | Classification and statistics of the grade of pesticide damage Grade 0 [2, 10]: 0 | Classification and statistics of the grade of pesticide damage Grade 1 [2, 10]: 0 | Classification and statistics of the grade of pesticide damage Grade 2 [2, 10]: 0 | Classification and statistics of the grade of pesticide damage Grade 3 [2, 10]: 16 | Scores ([2]; Table 10, topramezone 200 g ai/ha (8×), pesticide damage score): 100 | tolerance to topramezone (in words) ([2]; in vivo): no tolerance | Classification and statistics of the grade of pesticide damage: Grade 0 [2, 11]: 0 | Classification and statistics of the grade of pesticide damage: Grade 1 [2, 11]: 0 | Classification and statistics of the grade of pesticide damage: Grade 2 [2, 11]: 4 | Classification and statistics of the grade of pesticide damage: Grade 3 [2, 11]: 12 | Classification and statistics of the grade of pesticide damage: Grade 0 [2, 12]: 0 | Classification and statistics of the grade of pesticide damage: Grade 1 [2, 12]: 0 | Classification and statistics of the grade of pesticide damage: Grade 2 [2, 12]: 0 | Classification and statistics of the grade of pesticide damage: Grade 3 [2, 12]: 16 | Scores ([2]; pesticide damage score 0-100, topramezone 100 g ai/ha (4×), 7 DAT, Table 1): 92 | Scores ([2]; pesticide damage score 0-100, topramezone 200 g ai/ha (8×), 7 DAT, Table 1): 100 | Resistance evaluation [2, 13]: Non-resistant | Scores [2, 13]: 92 | Grade 0 (classification and statistics of the grade of pesticide damage; number of plants) [2, 13]: 0 | Grade 1 (classification and statistics of the grade of pesticide damage; number of plants) [2, 13]: 0 | Grade 2 (classification and statistics of the grade of pesticide damage; number of plants) [2, 13]: 4 | Grade 3 (classification and statistics of the grade of pesticide damage; number of plants) [2, 13]: 12 | Resistance evaluation [2, 11]: non-resistant (non-resistant plants (scores 68-100)) | Resistance evaluation [2, 14]: Non-resistant | Scores [2, 14]: 100 | Grade 0 (classification and statistics of the grade of pesticide damage; number of plants) [2, 14]: 0 | Grade 1 (classification and statistics of the grade of pesticide damage; number of plants) [2, 14]: 0 | Grade 2 (classification and statistics of the grade of pesticide damage; number of plants) [2, 14]: 0 | Grade 3 (classification and statistics of the grade of pesticide damage; number of plants) [2, 14]: 16 | Resistance evaluation [2, 12]: non-resistant (non-resistant plants (scores 68-100))
